Measurements as given in patent US20130230528A1 (Novartis, published 2013).

Assays:
[1] = biological target: T1, human CD40, soluble / recombinant (ELISA and Biacore) (human, UniProt P25942 20-193); assay: Biacore (assay named in paragraph 181)
T1 construct: also called soluble CD40; recombinant CD40

[2] = biological target: T2, human CD40 on the cell surface (normal B cells, B-CLL cells, EBV-transformed B cells, multiple myeloma cell … (human, UniProt P25942 20-277)); assay: cell-based or functional assay
[3] = biological target: T2, human CD40 on the cell surface (normal …); assay: cell-based or functional assay; remark: listed apart in the source
[4] = biological target: T2, human CD40 on the cell surface (normal …); assay: cell-based or functional assay; remark: listed apart in the source

T2 sequence (P25942 20-277): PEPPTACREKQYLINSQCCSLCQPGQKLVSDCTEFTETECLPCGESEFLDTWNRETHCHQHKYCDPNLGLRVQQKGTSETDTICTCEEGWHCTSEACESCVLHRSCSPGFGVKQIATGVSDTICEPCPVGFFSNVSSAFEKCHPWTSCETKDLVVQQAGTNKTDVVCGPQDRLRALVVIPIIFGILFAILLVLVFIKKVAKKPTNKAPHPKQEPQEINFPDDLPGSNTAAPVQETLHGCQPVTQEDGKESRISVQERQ
T1 sequence (P25942 20-193): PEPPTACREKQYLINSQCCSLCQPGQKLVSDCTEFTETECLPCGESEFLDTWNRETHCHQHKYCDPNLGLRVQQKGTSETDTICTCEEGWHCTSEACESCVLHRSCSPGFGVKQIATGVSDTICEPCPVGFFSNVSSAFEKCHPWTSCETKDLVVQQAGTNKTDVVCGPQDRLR

B1: CHIR-5.9 fully human anti-CD40 monoclonal antibody (antibody, V domains shown)
VH: EVQLVQSGAEVKKPGESLKISCKGSGYSFTSYWIGWVRQMPGKGLEWMGIIYPGDSDTRYSPSFQGQVTISADKSISTAYLQWSSLKASDTAMYYCARGTAAGRDYYYYYGMDVWGQGTTVTVSS
VL: AIVMTQPPLSSPVTLGQPASISCRSSQSLVHSDGNTYLNWLQQRPGQPPRLLIYKFFRRLSGVPDRFSGSGAGTDFTLKISRVEAEDVGVYYCMQVTQFPHTFGQGTRLEIKR
notes: Human IgG1 kappa from XenoMouse hybridoma; also called mAb CHIR-5.9; 131.2F8.5.9
Kd [1]: 12 nM

B2: CD40L on transfected, formaldehyde-fixed CHO cells (ligand)
chain: MIETYNQTSPRSAATGLPISMKIFMYLLTVFLITQMIGSALFAVYLHRRLDKIEDERNLHEDFVFMKTIQRCNTGERSLSLLNCEEIKSQFEGFVKDIMLNKEETKKENSFEMQKGDQNPQIAAHVISEASSKTTSVLQWAEKGYYTMSNNLVTLENGKQLTVKRQGLYYIYAQVTFCSNREASSQAPFIASLCLKSPGRFERILLRAANTHSSAKPCGQQSIHLGGVFELQPGASVFVNVTDPSQVSHGTGFTSFGLLKL
MCP-1 secretion, normal B cells, Donor 1, fold induction over background [2]: 5.5 fold
MCP-1 secretion, normal B cells, Donor 3, fold induction over background [2]: 1.7 fold
MIP-1β secretion, normal B cells, Donor 1, fold induction over background [2]: 2.2 fold
MIP-1β secretion, normal B cells, Donor 2, fold induction over background [2]: 2.6 fold
MIP-1β secretion, normal B cells, Donor 3, fold induction over background [2]: 17.8 fold
hIL-6 secretion, normal B cells, Donor 1, fold induction over background [2]: 5.7 fold
hIL-6 secretion, normal B cells, Donor 2, fold induction over background [2]: 3.8 fold
hIL-6 secretion, normal B cells, Donor 3, fold induction over background [2]: 20.5 fold
hIL-8 secretion, normal B cells, Donor 1, fold induction over background [2]: 7.7 fold
hIL-8 secretion, normal B cells, Donor 2, fold induction over background [2]: 14.7 fold
hIL-8 secretion, normal B cells, Donor 3, fold induction over background [2]: 49.3 fold
hIL-10 secretion, normal B cells, Donor 1, fold induction over background [2]: 3.6 fold
hIL-10 secretion, normal B cells, Donor 3, fold induction over background [2]: 3.6 fold
hTNF-α secretion, normal B cells, Donor 1, fold induction over background [2]: 3.7 fold
hTNF-α secretion, normal B cells, Donor 2, fold induction over background [2]: 4.8 fold
hTNF-α secretion, normal B cells, Donor 3, fold induction over background [2]: 22.8 fold
MCP-1 secretion, CLL cells, CLL #1, fold induction over background [3]: 5.5 fold
hGM-CSF secretion, CLL cells, CLL #1, fold induction over background [3]: 7.6 fold
hIL-8 secretion, CLL cells, CLL #1, fold induction over background [3]: 4 fold
hIL-10 secretion, CLL cells, CLL #1, fold induction over background [3]: 9.2 fold
hTNF-α secretion, CLL cells, CLL #1, fold induction over background [3]: 3.3 fold

B3: soluble recombinant human CD40L (Alexis Corporation) (ligand)
chain: GDQNPQIAAHVISEASSKTTSVLQWAEKGYYTMSNNLVTLENGKQLTVKRQGLYYIYAQVTFCSNREASSQAPFIASLCLKSPGRFERILLRAANTHSSAKPCGQQSIHLGGVFELQPGASVFVNVTDPSQVSHGTGFTSFGLLKL
CellTiter-Glo viability, fold induction by rhsCD40L, CLL subject M1 [4]: 3.1 fold
CellTiter-Glo viability, fold induction by rhsCD40L, CLL subject M2 [4]: 2.9 fold
CellTiter-Glo viability, fold induction by rhsCD40L, CLL subject M3 [4]: 1.9 fold
CellTiter-Glo viability, fold induction by rhsCD40L, CLL subject M4 [4]: 2.3 fold
CellTiter-Glo viability, fold induction by rhsCD40L, CLL subject M5 [4]: 3.5 fold
CellTiter-Glo viability, fold induction by rhsCD40L, CLL subject M6 [4]: 2.6 fold
CellTiter-Glo viability, fold induction by rhsCD40L, CLL subject M7 [4]: 3.8 fold
CellTiter-Glo viability, fold induction by rhsCD40L, Normal B [4]: 3 fold
cPARP flow cytometry, fold inhibition by rhsCD40L, CLL subject M1 [4]: 5.8 fold
cPARP flow cytometry, fold inhibition by rhsCD40L, CLL subject M2 [4]: 2.6 fold
cPARP flow cytometry, fold inhibition by rhsCD40L, CLL subject M3 [4]: 2.1 fold
cPARP flow cytometry, fold inhibition by rhsCD40L, CLL subject M4 [4]: 3.2 fold
cPARP flow cytometry, fold inhibition by rhsCD40L, CLL subject M5 [4]: 2.3 fold
cPARP flow cytometry, fold inhibition by rhsCD40L, CLL subject M6 [4]: 0.9 fold
cPARP flow cytometry, fold inhibition by rhsCD40L, CLL subject M7 [4]: 5.2 fold
cPARP flow cytometry, fold inhibition by rhsCD40L, Normal B [4]: 3 fold

B4: CHIR-12.12 fully human anti-CD40 monoclonal antibody (antibody, human IgG1, kappa, V domains shown)
VH: QVQLVESGGGVVQPGRSLRLSCAASGFTFSSYGMHWVRQAPGKGLEWVAVISYEESNRYHADSVKGRFTISRDNSKITLYLQMNSLRTEDTAVYYCARDGGIAAPGPDYWGQGTLVTVSS
VL: DIVMTQSPLSLTVTPGEPASISCRSSQSLLYSNGYNYLDWYLQKPGQSPQVLISLGSNRASGVPDRFSGSGSGTDFTLKISRVEAEDVGVYYCMQARQTPFTFGPGTKVDIRR
notes: Human IgG1 kappa from XenoMouse hybridoma; also called 153.8E2.D10.D6.12.12
Kd [1]: 0.5 nM
